# T1: NPHP1-SH3 (15N-labelled SH3 domain of nephrocystin-1 for NMR and ITC) (Homo sapiens (Human), UniProt O15259)
# T1 chain: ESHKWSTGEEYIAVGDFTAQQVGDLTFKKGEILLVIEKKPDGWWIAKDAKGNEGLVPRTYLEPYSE
# T2: NPHP1-SH3 (15N-labelled SH3 domain of nephrocystin-1 for NMR and ITC) (human, UniProt O15259 147-212)
# T2 construct: Nephrocystin-1 (NPHP1), human, SH3 domain, codons 147-212, expressed from pGEX-2T; 15N isotope label for NMR; also called 15N NPHP1-SH3
# T2 sequence (looked up): T1 chain
# B1: peptPP2 (peptide)
# peptide: Ac-GLRPALPSRLARAS-NH2
# notes: stretch of the PC-1 C-tail containing PP2 (P4267ALPSR4272), aminoacids 4264-4277; also called PP2 peptide; source: synthetic peptide, bought: CASLO (Lyngby, Denmark)
# Experiments:
# [1] = target: T1, NPHP1-SH3 (15N-labelled SH3 domain of …); assay: NMR titration (1H-15N HSQC)
# [2] = target: T2, NPHP1-SH3 (15N-labelled SH3 domain of …); assay: NMR titration; 1H-15N HSQC of 15N NPHP1-SH3 (0.3 mM) with added peptide (0, 0.5, 1, 1.5, 2, 3, 4 equivalents for peptPP2); fast exchange; settings: both partners purified
Binder,binding result [1],Kd [2]
Ac-RGSKVSPDVPPPS-NH2 (protein) [peptPP1],no binding,–
B1,–,300 ± 20 µM
